Measurements published in patent US20070275900.

Tests used:
[1] = target: T1, Z-Val-Pro-Val-Pro-NAP-TSAO
T1 chain: VPVP

[2] = target: T2, Val-Pro-PI 1
T2 chain: VP

[3] = target: T3, H-Val-Pro-Val-Pro-NAP-TSAO
T3 chain: VPVP

[4] = target: T4, H-Lys-Pro-Asp-Pro-NAP-TSAO
T4 chain: KPDP

[5] = target: T5, H-Val-Leu-NAP-TSAO
T5 chain: VL

[6] = target: T6, H-Val-Phe-NAP-TSAO
T6 chain: VF

[7] = target: T7, H-Val-Ala-Val-Pro-NAP-TSAO
T7 chain: VAVP

[8] = target: T8, H-Val-Pro-Val-NAP-TSAO
T8 chain: VPV

[9] = target: T9, Me-NH-Val-Pro-Val-NHP-TSAO
T9 chain: VPV

[10] = target: T10, H-Val-4HyPro-NAP-TSAO
T10 chain: VP

[11] = target: T11, H-Val-Pro-Doxorubicin
T11 chain: VP

[12] = target: T12, H-Gly-3.4Hypro-NAP-TSAO
T12 chain: GP

[13] = target: T13, H-Val-Ala-NAP-TSAO
T13 chain: VA

[14] = target: T14, H-Lys-Pro-NAP-TSAO
T14 chain: KP

[15] = target: T15, Fmoc-Val-Pro-Doxorubicin
T15 chain: VP

[16] = target: T16, NH2-Val-HyPro(Bzl)-NAP-TSAO
T16 chain: VP

[17] = target: T17, H-Val-D-Pro-NAP-TSAO
T17 chain: VP

[18] = target: T18, H-Val-Pro-Val-NHP-TSAO
T18 chain: VPV

[19] = target: T19, H-Tyr-Pro-NAP-TSAO
T19 chain: YP

[20] = target: T20, H-Val-Pro-6-Aminoquinoline
T20 chain: VP

[21] = target: T21, H-Gly-Pro-NAP-TSAO
T21 chain: GP

[22] = target: T22, H-Val-Gly-NAP-TSAO
T22 chain: VG

[23] = target: T23, H-Asp-Pro-NAP-TSAO
T23 chain: DP

[24] = target: T24, H-Val-Pro-NAP-TSAO
T24 chain: VP

B1: purified CD26 (dipeptidyl-peptidase IV, EC 3.4.14.5) (protein)
chain: MKTPWKVLLGLLGAAALVTIITVPVVLLNKGTDDATADSRKTYTLTDYLKNTYRLKLYSLRWISDHEYLYKQENNILVFNAEYGNSSVFLENSTFDEFGHSINDYSISPDGQFILLEYNYVKQWRHSYTASYDIYDLNKRQLITEERIPNNTQWVTWSPVGHKLAYVWNNDIYVKIEPNLPSYRITWTGKEDIIYNGITDWVYEEEVFSAYSALWWSPNGTFLAYAQFNDTEVPLIEYSFYSDESLQYPKTVRVPYPKAGAVNPTVKFFVVNTDSLSSVTNATSIQITAPASMLIGDHYLCDVTWATQERISLQWLRRIQNYSVMDICDYDESSGRWNCLVARQHIEMSTTGWVGRFRPSEPHFTLDGNSFYKIISNEEGYRHICYFQIDKKDCTFITKGTWEVIGIEALTSDYLYYISNEYKGMPGGRNLYKIQLSDYTKVTCLSCELNPERCQYYSVSFSKEAKYYQLRCSGPGLPLYTLHSSVNDKGLRVLEDNSALDKMLQNVQMPSKKLDFIILNETKFWYQMILPPHFDKSKKYPLLLDVYAGPCSQKADTVFRLNWATYLASTENIIVASFDGRGSGYQGDKIMHAINRRLGTFEVEDQIEAARQFSKMGFVDNKRIAIWGWSYGGYVTSMVLGSGSGVFKCGIAVAPVSRWEYYDSVYTERYMGLPTPEDNLDHYRNSTVMSRAENFKQVEYLLIHGTADDNVHFQQSAQISKALVDVGVDFQAMWYTDEDHGIASSTAHQHIYTHMSHFIKQCFSLP
For B1, the % conversion, 1 h [1] was 0%, the % conversion, 4 h [1] was 0% and the % conversion, 24 h [1] was 0%. For the same protein, the “conversion of PI-2 to PI-1 by purified CD26” value [2] was “Within 60 min, PI-2 was completely converted to PI-1 by purified CD26”, the % conversion, 1 h [3] was 43% and the % conversion, 4 h [3] was 86%. It also gave a % conversion, 24 h [3] of 88%, a % conversion, 1 h, to the dipeptide intermediate (a) [4] of 88% and a % conversion, 1 h, to the parent compound (b) [4] of 2.1%. It also gave a % conversion, 4 h, to the dipeptide intermediate (a) [4] of 86%, a % conversion, 4 h, to the parent compound (b) [4] of 6% and a % conversion, 24 h, to the dipeptide intermediate (a) [4] of 74%. For the same protein, the % conversion, 24 h, to the parent compound (b) [4] was 26%, the Conversion %, 1 h [5] was 0% and the Conversion %, 4 h [5] was 0%. The Conversion %, 24 h [5] was 0%, the Conversion %, 1 h [6] was 0% and the Conversion %, 4 h [6] was 0%. It also gave a Conversion %, 24 h [6] of 0%, a % conversion, 1 h [7] of 12% and a % conversion, 4 h [7] of 54%. It also gave a % conversion, 24 h [7] of 70%, a Conversion %, 4 h [8] of 51% and a Conversion %, 24 h [8] of 70%. For the same protein, the Conversion %, 1 h [9] was 0%, the Conversion %, 4 h [9] was 0% and the Conversion %, 24 h [9] was 0%. The Conversion %, 1 h [10] was 4.1%, the Conversion %, 4 h [10] was 18% and the Conversion %, 24 h [10] was 53%. For the same protein, the % conversion, 1 h [11] was 78%, the % conversion, 4 h [11] was 95% and the % conversion, 24 h [11] was 97%. For the same protein, the Conversion %, 4 h [12] was 0%, the Conversion %, 24 h [12] was 0% and the Conversion %, 1 h [13] was 0%. The Conversion %, 4 h [13] was 6.5%, the Conversion %, 24 h [13] was 35% and the Conversion %, 4 h [14] was 85%. For the same protein, the Conversion %, 24 h [14] was 99%, the % conversion, 1 h [15] was 0% and the % conversion, 4 h [15] was 0%. It also gave a % conversion, 24 h [15] of 0%, a Conversion %, 4 h [16] of 0% and a Conversion %, 24 h [16] of 0%. It also gave a Conversion %, 1 h [17] of 0%, a Conversion %, 4 h [17] of 1% and a Conversion %, 24 h [17] of 2%. The Conversion %, 1 h [18] was 33%, the Conversion %, 4 h [18] was 60% and the Conversion %, 1 h [19] was 43%. It also gave a Conversion %, 4 h [19] of 56%, a Conversion %, 24 h [19] of 79% and a % conversion, 1 h [20] of 99%. For the same protein, the % conversion, 4 h [20] was 100%, the % conversion, 24 h [20] was 100% and the Conversion %, 1 h [21] was 5%. For the same protein, the Conversion %, 4 h [21] was 20%, the Conversion %, 24 h [21] was 58% and the Conversion %, 1 h [22] was 0%. It also gave a Conversion %, 4 h [22] of 0%, a Conversion %, 24 h [22] of 0% and a Conversion %, 4 h [23] of 7.9%. The Conversion %, 24 h [23] was 30%, the Conversion %, 1 h [24] was 37% and the Conversion %, 4 h [24] was 62%. For the same protein, the Conversion %, 24 h [24] was 61%, the “conversion of 50 µM CAM-405 to CAM-212 by 5.7 mUnits purified CD26, 30 min (HPLC)” value [24] was “fifty percent of the TSAO dipeptide derivative was converted to CAM-212 within 30 min” and the “conversion of 50 µM CAM-405 to CAM-212 by 5.7 mUnits purified CD26, first 10 min (HPLC)” value [24] was “Within the first 10 min of the reaction, at least 20% of CAM-405 had been converted to CAM-212”. For the same protein, the “hydrolysis of 50 µM CAM-405 by 5.7 mUnits purified CD26, 60 min (HPLC)” value [24] was “˜67% of CAM-405 was hydrolysed after 60 min”.
